{"source": "paper PMC3662692", "key": {"[1]": {"target": "phospholipase Cγ1 (PLCγ1) (UniProt P19174)", "test": "biotin-peptide streptavidin-agarose pull-down, Western blot", "details": "reference: non-phosphorylated Cav1 peptide; sites Y14"}, "[2]": {"target": "p85 regulatory subunit of PI3 kinase (PI3K-p85; p85α in Table 1) (UniProt P27986)", "test": "biotin-peptide streptavidin-agarose pull-down, Western blot", "details": "reference: non-phosphorylated Cav1 peptide; sites Y14"}, "[3]": {"target": "T1, caveolin-1 (human (endogenous in Chang cells)), Q03135", "T1 chain": "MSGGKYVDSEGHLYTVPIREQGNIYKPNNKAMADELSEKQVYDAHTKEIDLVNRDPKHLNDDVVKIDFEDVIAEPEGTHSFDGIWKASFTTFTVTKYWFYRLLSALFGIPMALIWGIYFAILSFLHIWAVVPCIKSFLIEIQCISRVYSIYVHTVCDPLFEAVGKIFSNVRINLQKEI", "test": "co-IP; as a1, but Chang cells infected with N138 (PorBIB, P+) at MOI 20 for 1 h; endogenous Cav1 precipitated, Western blot", "details": "remark: other sources report otherwise"}, "[4]": {"target": "T1, caveolin-1 (human (endogenous in Chang …))", "test": "co-IP; endogenous Cav1 precipitated with anti-Caveolin antibody (BD Transduction) and Protein G magnetic beads from Chang cell lysates (20 mM Tris, 150 mM NaCl, 1% Triton-X-100, pH 7.5); cells not infected or infected with N927 (PorBIA, P-) at MOI 20 for 1 h; in one experiment PLCγ1 inhibitor U73122 (10 µM) added 30 min before infection; Western blot", "details": "remark: other sources report otherwise"}}}
{"molecule": "caveolin-1 (Cav1) 7-21 (from UniProt Q03135) Cav1 pY14 peptide", "values": [{"measurement": "binding against the reference", "setting": "[1]", "value": "gained"}, {"measurement": "binding against the reference", "setting": "[2]", "value": "gained"}]}
{"molecule": "Vav2, P52735 1-878 (natural protein) MEQWRQCGRWLIDCKVLPPNHRVVWPSAVVFDLAQALRDGVLLCQLLHNLSPGSIDLKDINFRPQMSQFLCLKNIRTFLKVCHDKFGLRNSELFDPFDLFDVRDFGKVISAVSRLSLHSIAQNKGIRPFPSEETTENDDDVYRSLEELADEHDLGEDIYDCVPCEDGGDDIYEDIIKVEVQQPMIRYMQKMGMTEDDKRNCCLLEIQETEAKYYRTLEDIEKNYMSPLRLVLSPADMAAVFINLEDLIKVHHSFLRAIDVSVMVGGSTLAKVFLDFKERLLIYGEYCSHMEHAQNTLNQLLASREDFRQKVEECTLKVQDGKFKLQDLLVVPMQRVLKYHLLLKELLSHSAERPERQQLKEALEAMQDLAMYINEVKRDKETLRKISEFQSSIENLQVKLEEFGRPKIDGELKVRSIVNHTKQDRYLFLFDKVVIVCKRKGYSYELKEIIELLFHKMTDDPMNNKDVKKSHGKMWSYGFYLIHLQGKQGFQFFCKTEDMKRKWMEQFEMAMSNIKPDKANANHHSFQMYTFDKTTNCKACKMFLRGTFYQGYMCTKCGVGAHKECLEVIPPCKFTSPADLDASGAGPGPKMVAMQNYHGNPAPPGKPVLTFQTGDVLELLRGDPESPWWEGRLVQTRKSGYFPSSSVKPCPVDGRPPISRPPSREIDYTAYPWFAGNMERQQTDNLLKSHASGTYLIRERPAEAERFAISIKFNDEVKHIKVVEKDNWIHITEAKKFDSLLELVEYYQCHSLKESFKQLDTTLKYPYKSRERSASRASSRSPASCASYNFSFLSPQGLSFASQGPSAPFWSVFTPRVIGTAVARYNFAARDMRELSLREGDVVRIYSRIGGDQGWWKGETNGRIGWFPSTYVEEEGIQ", "values": [{"measurement": "relative amount of Vav2 in the Cav1 precipitate, cells infected with N138 (non-infected cells = 100%)", "setting": "[3]", "value": 99, "unit": "%"}, {"measurement": "relative amount of Vav2 in the Cav1 precipitate, cells infected with N927 (non-infected cells = 100%)", "setting": "[4]", "value": 50, "unit": "%"}, {"measurement": "relative amount of Vav2 in the Cav1 precipitate, non-infected cells (reference)", "setting": "[4]", "value": 100, "unit": "%"}]}
